In assay [1] the target is T1, human TLR3 (human, UniProt O15455 24-904).
T1 construct: whole, on cells; also called human Toll-like receptor 3
Description: stated in the description with reference to the Examples (reporter gene assays).

Assay [2] concerns the target T1, human TLR3. As to the kind of experiment: stated in the description with reference to the Examples (dominant-negative effect in reporter gene assays). Here is the method:
By using the gene transfecting cationic lipid "Lipfectamine 2000" reagent (made by Gibco), HEK293 cells in 24-well plates were transfected with (i) 0.1 µg of luciferase-linked NF-κB reporter gene (made by Stratagene) (c.f. FIG. 13(b)) or 0.1 µg of p125.luc reporter plasmid (c.f. FIG. 13(a)), (ii) TICAM-1 TIR (0.1 ng and 10 ng) or a plasmid (0, 0.2 µg, 0.6 µg), the plasmid encoding TICAM-1 TIR mutant TIR P434H of TICAM-1 TIR, and (iii) empty vector, TLR2 (0.1 µg), or TLR3 (0.6 µg).
A total amount (0.8 µg to 1.0 µg) of transfected DNA was adjusted by adding the empty vectors. Moreover, plasmid vector pCMVβ (made by Clontech; 5 ng) was used as an internal control.
Twenty four hours after the transfection, the cells were stimulated for 6 hours with 100 nM of MALP-2 (TLR2 stimulation) or 10 µg/ml of poly (I:C) (TLR3 stimulation), and then lyzed with the lysis buffer (made by Promega). Luciferase activity that indicate the interferon β activation or NF-κB activation caused by stimulation after the transfection in thus prepared lysates were measured according to the manufacturer's instructions. This experiment was repeated three times. Representing values thereof were considered as measurement values. Level of the interferon β activation is illustrated in FIG. 13(a), and level of the NF-κB activation is illustrated in FIG. 13(b).

Positions count from the first letter of the chain named. In names and notes the source's numbering stands.

B1: human TICAM-1 TIR (mutant made of almost only the TIR domain, amino acids 387 to 556 of human TICAM-1) (other)
chain: ESSSEQKFYNFVILHARADEHIALRVREKLEALGVPDGATFCEDFQVPGRGELSCLQDAIDHSAFIILLLTSNFDCRLSLHQVNQAMMSNLTRQGSPDCVIPFLPLESSPAQLSSDTASLLSGLVRLDEHSQIFARKVANTFKPHRLQARKAMWRKEQDTRALREQSQHL
notes: Expressed in HEK293 cells from pEFBOS; also called TIR of TICAM-1; pEFBOS-TICAM-1 (TIR)
Take B1: in the assay with human TLR3 [1], the binding result is listed as “binds”.

B2: dominant-negative mutant P434H of human TICAM-1 TIR (other)
chain: B1 chain with P48H
notes: Expressed in HEK293 cells from pEFBOS with an initiator Met; also called TIR P434H
On to B2, for which the binding result with human TLR3 [2] is reported as “binds”.

Values taken from patent US7582437 (JAPAN SCIENCE AND TECHNOLOGY AGENCY, dated 2009).
